The stoichiometry N is the number of molecules, sites or subunits per partner or assembly.

Assay [1] addresses His6-tagged FGF2 (Fibroblast Growth Factor 2, 18 kDa isoform), wild type, P09038-2. Put plainly: AlphaScreen. Particulars: His-FGF2 and GST-α1-subCD3 variants cross-titrated from 500 to 8 nM in PBS, 0.1% (w per v) BSA, 0.05% (w per v) Tween 20; selected concentration pairs …; parent: est. 100; read off a plot. For orientation: Bead proximity is the source of the signal in Alpha formats.

The target in assay [2] is α1-subCD3 as used in cross-linking and NMR experiments (migrates at 27 kDa) (human) (UniProt P05023). Put plainly: cross-linking; BMOE (1:1 to protein) or DSG (4:1) at 25 °C in HK buffer (25 mM Hepes pH 7.4, 150 mM KCl); single proteins 10 µM, mixtures 20 µM total at ratios 1:1, 1:2, 2:1; SDS-PAGE with Coomassie staining or western blot.

“GST-α1-subCD3, small sub-domain of loop 3 of the cytoplasmic domain of α1 (from UniProt P05023) K524M; E525Q”: the percent of parent in assay [1] came out at 100%.
For the substance “GST-α1-subCD3, small sub-domain of loop 3 of the cytoplasmic domain of α1, P05023 D560N”, the percent of parent in assay [1] turned out to be 60%.
Consider “GST-α1-subCD3, small sub-domain of loop 3 of the cytoplasmic domain of α1 (from UniProt P05023) K524E; E525R”, for which the percent of parent in assay [1] was 100%.
Still for that read-out and setting: the result for “GST-α1-subCD3, small sub-domain of loop 3 of the cytoplasmic domain of α1, P05023 K524M; E525Q; E498Q” reads 110%.
On to “His6-tagged FGF2 (Fibroblast Growth Factor 2, 18 kDa isoform), wild type (from UniProt P09038-2 1-155) (natural protein)”, for which the stoichiometry N in assay [2] is 1.

Values taken from publication PMC7096399.
